{"source": "patent US10752675B2", "about": "“Compounds for treating the remyelination blockade in diseases associated with the expression of HERV-W envelope protein” (GENEURO S.A., priority 2012, dated 2020)", "key": {"[1]": {"system": "MSRV-Env induced EAE in C57BL/6 mice", "test": "Rotarod test, Example 3.B (MSRV-Env induced EAE)", "format": "in vivo", "settings": "GNbAC1 500 μg/mouse given alone, all relevant speeds (16, 26, 29 rpm)", "description": "1 day before each immunization, mice were transferred in their home cages, from the holding room to the experimental room. Mice were habituated to the experimental room for 15 min. Mice then received two trials at 10 increasing speed levels, ranging from 7 to 40 rpm. Individual delays before falling off the rotarod (for the two trials at each speed level) was recorded until 60 sec. Thus, training and performance on the Rotarod system were determined for each animal.\nThe ROTAROD test results are expressed as kinetics of the mean of individual scores for each group with SEM indicated by bars, for each test day and for each test speed within the discriminating range for neuromotor impairment in present conditions (16 to 29 rpm).\nThey are calculated for each individual mouse, for each test day and for each speed value, as the relative gain or loss of time on Rotarod (before falling), compared to the first test day at the same speed (D-7, before starting the disease induction in relevant groups). The value is calculated as “Time on Rotarod at dayX”−“Time at Day-7 for the same mouse at the same speed”. […]"}, "[2]": {"system": "MSRV-Env induced EAE in C57BL/6 mice", "test": "EAE clinical score, Example 3.C (GNbAC1 and Sodium Fumarate)", "format": "in vivo", "excerpt": "Animals were weighed and clinically scored 5 days per week according to the following criteria: 0=no signs; 1=tail paralysis or hyper-reflex of hind limb(s) or unilateral hind limb weakness; 2=bilateral hind limb or forelimb weakness; 3=plus unilateral paralysis or major deficit; 4=complete hind limb or forelimb paralysis; 5=plus partial paralysis or major deficit of opposite limbs; 6=moribund or dead. These were adapted from standard criteria, in order to reflect the more rapid induction of brain and cervical cord lesions with this model."}}, "note": "Entries after “also recorded” stand apart in the source; their conditions may differ.", "data": [{"molecule": "GNbAC1: recombinant humanized anti-Env IgG4 monoclonal antibody comprising the CDRs of SEQ ID No. 1 to 6 (antibody, chains of the INN, looked up, V domains shown) VH: QVQLVQSGAEVKKPGSSVKVSCKASGYTFTDYEMHWVRQAPGQGLEWIGAVAPETGGTAYNQKFKGRATITADKSTSTAYMELSSLRSEDTAVYYCTSTVVPFAYWGQGTLVTVSS VL: QIQLTQSPSSLSASVGDRVTITCSASSSVSYMYWYQQKPGKAPKAWIYRTSNLASGVPSRFSGSGSGTDYTLTISSLQPEDFATYYCQQYQSLPLTFGGGTKVEIK", "values": [{"measurement": "Rotarod, improvement of neurological deficit", "setting": "[1]", "result": "significantly the most efficient product"}, {"measurement": "EAE clinical score kinetics and endpoint", "setting": "[2]; from day 12: GNbAC1 500 μg IP, Sodium Fumarate 10 mg daily in 3.5 ml drinking water, versus isotype control antibody", "result": "significant reversion of their clinical score curves; also recorded: equivalent and significantly good recovery at the end of the study"}, {"measurement": "day from which clinical improvement appeared", "setting": "[2]; treatment started day 12", "result": 15, "unit": "days"}]}]}
